Here are results for nine molecules from patent US20240409645A1 (DUALYX, published 2024).

Numbering of substitutions follows the chain as printed.

For experiment [1], the target named is T1, human interleukin-2 receptor α-chain (IL-2Rα; CD25), recombinant protein (human, UniProt P01589 22-240, limits assumed).
T1 construct: also called huIL2R-a; hIL-2RA
T1 sequence: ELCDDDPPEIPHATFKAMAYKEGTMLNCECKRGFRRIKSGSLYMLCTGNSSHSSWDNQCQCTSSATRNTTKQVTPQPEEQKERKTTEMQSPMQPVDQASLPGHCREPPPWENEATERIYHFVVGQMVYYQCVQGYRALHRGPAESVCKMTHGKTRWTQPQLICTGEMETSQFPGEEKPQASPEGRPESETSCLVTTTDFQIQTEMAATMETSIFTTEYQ
As to the kind of experiment: P.E. off-rate SPR. In outline:
(§1)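 CM5 chip, amine coupling (acetate buffer), ~2500 RU receptor. VHH P.E. flowed at 30 uL/min; off-rate read over 120 s.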

The target in experiment [2] is T2, mouse IL-2Rα, recombinant protein (mouse, UniProt P01590 22-236, limits assumed).
T2 construct: also called moIL2R-a
T2 sequence (looked up): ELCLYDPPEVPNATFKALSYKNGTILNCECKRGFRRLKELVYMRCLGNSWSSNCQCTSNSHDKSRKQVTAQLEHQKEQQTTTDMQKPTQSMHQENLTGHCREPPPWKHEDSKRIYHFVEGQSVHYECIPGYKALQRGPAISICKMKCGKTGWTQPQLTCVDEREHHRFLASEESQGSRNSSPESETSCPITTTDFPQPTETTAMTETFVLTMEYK
Nature of the experiment: P.E. off-rate SPR. In outline:
as §1

Experiment [3] has as its target T1, human interleukin-2 receptor α-chain …. As to the kind of experiment: P.E. binding ELISA. In outline:
(§2)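 Plates were coated overnight at 4° C with human or mouse IL-2R chain protein, and free sites blocked for 1 hour in 4% Marvel in PBS. Periplasmic extracts diluted 1:5 in 1% Marvel/PBS then bound for 1 hour, with specificity assessed from 450 nm absorbance relative to negative controls.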
Background: An ELISA detects its analyte on a solid surface through an enzyme-linked reagent.

In experiment [4] the target is T2, mouse IL-2Rα, recombinant protein. As to the kind of experiment: P.E. binding ELISA. In outline: as §2
Experiment [5] concerns the target T3, human interleukin-2 receptor α-chain (human, UniProt P01589 22-240, limits assumed).
T3 construct: Recombinant human IL-2Rα protein, coated on the ELISA plate or amine-coupled to a CM5 chip; also called human IL-2Rα; hu IL-2R
T3 sequence: T1 sequence
Nature of the experiment: binding ELISA, periplasmic extract 1:5 on coated human IL-2Rα, anti-c-myc detection. On the procedure:
In a binding ELISA, human or mouse IL-2Rα, IL-2Rβ and IL-2Rγ proteins were coated directly on maxisorp microtiter plates overnight at 4° C. Free binding sites were blocked using 4% Marvel in PBS for 1 hour. Next, 1:5 dilution of P.E. in 1% Marvel/PBS were added to wells and incubated for 1 hour. […] Binding specificity was determined based on O.D. at 450 nm values compared to negative controls.

Experiment [6] has as its target T3, human interleukin-2 receptor α-chain. Nature of the experiment: SPR (Biacore 3000) off-rate ranking, periplasmic extract over immobilised human IL-2Rα. How it is done: SPR was performed to determine dissociation rates using Biacore 3000 instrument (GE Healthcare). Briefly, human and mouse IL-2R proteins were immobilized on carboxylmethyl dextran sensor chip (CM5) at approximately 2500 RUs using amine coupling in acetate buffer (GE Healthcare). The VHH-containing P.E. were loaded with a flow rate of 30 uL/min and the off-rates were measured over a 120s period.

Experiment [7] concerns the target T4, mouse IL-2Rα (mouse, UniProt P01590 22-236, limits assumed).
T4 construct: Recombinant mouse IL-2Rα protein, coated on the ELISA plate or amine-coupled to a CM5 chip; also called mo IL-2R; moIL2R-a
T4 sequence (looked up): T2 sequence (looked up)
Nature of the experiment: SPR (Biacore 3000) off-rate ranking, periplasmic extract over immobilised mouse IL-2Rα. (SPR reads the build-up and loss of mass on a sensor chip optically.)

B1: 4-MP01F04 VHH (periplasmic extract) (VHH)
VHH: QVQLVESGGGLVQAGGSLRLSCAASGGTFRTRNMGWFRRAPGKEREFVAAVSWNVDNKLYADSVKGRFTISRDNGRNMVYLQMNSLKPEDTAVYYCAADNIPLSSDMRPTATEYDYWGQGTQVTVSS
notes: soluble VHH in periplasmic extract
As a reminder, the koff is the first-order rate constant of dissociation. Turning to B1, the koff in experiment [1] amounted to 0.000258 s⁻¹; in experiment [2], 0.256 s⁻¹. The OD450 nm is 2.49 OD450 nm in experiment [3] and 0.046 OD450 nm in experiment [4].

B2: 12-MP05B12 VHH (periplasmic extract) (VHH)
VHH: QVQLVESGGGLVQAGGSLRLSCAASGFTFDGYAIGWFRQAPGKEREGVSYITGSDGSTYYADSVKGRFTISSNNAKNTVYLHMNSLKPDDAAVYYCAIDRLGSRGAYVPIWWRSSDMDLWGKGTLVTVSS
notes: as for B1
Consider B2, for which the koff in experiment [1] was 0.000222 s⁻¹; in experiment [2] it was 0.000547 s⁻¹. The OD450 nm came out at 2.14 OD450 nm in experiment [3] and 0.936 OD450 nm in experiment [4].

B3: FJ1427_P035MP05F11 (VHH)
VHH: QVQLVESGGGSVQAGGSLRLSCAASGRTLYSSYGMAWFRQAPGKERDFVGSISRYGTYTSYADSVKDRFTISRDNAKSTVYLQMNNTKPEDTAVYYCAAYTYSGSFYSAVKTHRDEYQYWGQGTQVTVSS
notes: Tested as soluble VHH in a crude periplasmic extract (P.E.); CDR3 family 15; also called Clone nr; 470
In the case of B3, the “PE binding ELISA (OD450 nm)” value in experiment [5] was 2.27 OD450. The molecule further returned a koff in experiment [6] of 0.00173 s⁻¹.

B4: FJ1427_P035MP05D12 (VHH)
VHH: B3 VHH with V2L, A109T
notes: Tested as soluble VHH in a crude periplasmic extract (P.E.); CDR3 family 15; also called Clone nr
As to B4, the “PE binding ELISA (OD450 nm)” value in experiment [5] stood at 2.39 OD450. In experiment [6], this molecule had a dissociation rate constant (koff) of 0.00235 s⁻¹.

B5: FJ1427_P035MP05C12 (VHH)
VHH: EVQLVESGGGLVQAGDSLRLSCAASGFNFGWHAMGWFRQAPGKEREFVATITWTGRDTYYADSVRGRFTISKDNAKNTLFLQMSSLRPDDTGVYYCAKARERATWAYSEDDCDYWGQGTQVTVSS
notes: Tested as soluble VHH in a crude periplasmic extract (P.E.); CDR3 family 1; also called Clone nr
For the molecule B5, the “PE binding ELISA (OD450 nm)” value in experiment [5] came out at 2.4 OD450. The molecule further showed a koff in experiment [6] of 0.000874 s⁻¹.

B6: FJ1427_P035MP05E12 (VHH)
VHH: B5 VHH with E1Q, V2L, N77D, S84N
notes: as for B5
Turning to B6, the “PE binding ELISA (OD450 nm)” value in experiment [5] is 2.15 OD450. The molecule further had a koff in experiment [6] of 0.000273 s⁻¹.

B7: 9-MP05G01 VHH (periplasmic extract) (VHH)
VHH: EVQLVESGGGLVQAGGSLRLSCAASGGSIYTYNMGWFRQAPGKEREFVAGTLWSGGDSVYADFAKGRFTLSRENAKNTLYLQMNSLKPEDTATYYCAIDPLSLTSDWRVDELSSWGKGTLVTVSS
notes: as for B1
With B7, the koff in experiment [1] amounted to 0.000169 s⁻¹; in experiment [2], 0.0442 s⁻¹. Besides, the OD450 nm in experiment [3] is 2.35 OD450 nm; in experiment [4] it was 0.047 OD450 nm.

B8: 11-MP05H04 VHH (periplasmic extract) (VHH)
VHH: QLQLVESGGGLVQAGGSLRLSCAASGLTFEGYAIGWFRQAPGKEREGVSYITGSDGTTYYINSVKGRFTISSDNAKSTVYLQMNTLKPEDTAVYYCAVDRLGSQGRYASAWWRSGDMDLWGKGTQVTVSS
notes: as for B1
As for B8, the koff is 0.0012 s⁻¹ in experiment [1] and 0.00163 s⁻¹ in experiment [2]. The OD450 nm in experiment [3] was determined as 2.22 OD450 nm; in experiment [4], 0.163 OD450 nm.

B9: FJ1427_P035MP05F12 (VHH)
VHH: QLQLVESGGGLVQAGGSLRLSCLASGLTFDGYAIGWFRQAPGKELEGVSYITGSDGSSYYADSVKGRFTISSDNAKNTVYLHMNSLKPDDAAVYYCAIDHLGSRGGYHSSWWRSSDMDLWGKGTLVTVSS
notes: Tested as soluble VHH in a crude periplasmic extract (P.E.); CDR3 family 4; also called Clone nr
As for B9, the “PE binding ELISA (OD450 nm)” value in experiment [5] turned out to be 2.19 OD450. In addition, the koff came to 0.000469 s⁻¹ in experiment [6] and 0.00463 s⁻¹ in experiment [7].
